Substitutions are numbered along the chain they refer to. Blank lines part the entries; values can stand above or below the binder they belong to.
Columns and labels:
[1] = molecular target: T1, 人补体D因子 (human complement Factor D) (human, UniProt P00746 26-253); experiment: ELISA on coated human Factor D and BLI
T1 construct: Bought protein; also called 人D因子; human CFD

[2] = molecular target: T1, 人补体D因子 (human complement Factor D); experiment: SPR (Biacore T200), full-length antibody captured by anti-human IgG Fc on CM5, antigen in flow, 1:1 model
[3] = molecular target: T1, 人补体D因子 (human complement Factor D); experiment: SPR (Biacore T200), Fab captured on CM5 chip

T1 sequence (P00746 26-253 limits assumed): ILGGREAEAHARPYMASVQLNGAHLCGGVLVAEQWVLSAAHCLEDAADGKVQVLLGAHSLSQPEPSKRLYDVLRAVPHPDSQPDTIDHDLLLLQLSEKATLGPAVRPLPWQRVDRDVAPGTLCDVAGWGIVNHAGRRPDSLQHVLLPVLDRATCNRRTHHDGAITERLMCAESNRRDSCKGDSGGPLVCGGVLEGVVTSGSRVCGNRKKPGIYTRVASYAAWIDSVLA

B2: 抗人D因子嵌合抗体 (Mab25的嵌合抗体, 全长) (antibody, V domains shown)
VH: AVQLQQSGPELVKPGASVKMSCKASGYTFTSYVINWMKQKPGQGLEWIGYINPYIDDSEYNEKFEGKATLTSDKTSSIAYMELSSLTSEDSAVYYCAREGPAFAYWGQGTLVTVSA
VL: DILLTQTPLSLPVSLGDHASVSCRSSQNLVHSNGDTYLEWYLQKPGQSPKLLIYKVSTRFSGVPDRFSGSGSGTDFTLKISRVEAEDLGVYYCFQGSHVPPTFGGGTKLEIK
notes: Chimeric form of Mab25 (mouse variable regions on human constant regions), compared with the humanised antibodies in the Biacore assay
binding result [2]: binds

B3: 人源化Fab克隆 AS01237 (Fab, V domains shown)
VH: EVQLVQSGAEVKKPGASVKVSCKASGYTFTSYVINWVRQAPGQGLEWMGYINPYIDDSEYNEKFEGRVTMTRNTSISTAYMELSSLRSEDTAVYYCAREGPAFAYWGQGTLVTVSS
VL: DIVMTQTPLSLSVTPGQPASISCRSSQNLVHSNGDTYLEWYQQKPGQPPKLLIYKVSTRFSGVPDRFSGSGSGTDFTLKISRVEAEDVGVYYCFQGSHVPPTFGQGTKVEIK
notes: Fab fragment with a SASA tag, as screened on Biacore; also called AS01237 Fab
binding result [3]: binds

B7: 抗人D因子人源化抗体 AS01328 (全长抗体) (antibody, V domains shown)
VH: B3 VH with E1Q, A9S, V11L, P41T, N73D, I76T, A79V
VL: B3 VL with Q17E, Q42L, P48A, K50R
notes: Full-length antibody from pTT5 in HEK293, protein A purified, captured by anti-human IgG Fc
binding result [2]: binds

B8: 人源化Fab克隆 AS01328 (Fab, V domains shown)
VH: B3 VH with E1Q, A9S, V11L, P41T, N73D, I76T, A79V
VL: B3 VL with Q17E, Q42L, P48A, K50R
notes: Fab fragment with a SASA tag, as screened on Biacore; also called AS01328 Fab
binding result [3]: binds

Results, then the binder that gave them:

binding result [1]: binds
B1: 抗人D因子鼠源单克隆抗体 Mab25 (antibody, V domains shown)
VH: B2 VH
VL: B2 VL
notes: Mouse hybridoma antibody; The heavy chain was cloned with a primer for the mouse IgG1 constant region; also called 杂交瘤细胞株25

binding result [2]: binds
B4: 抗人D因子人源化抗体 AS01237 (全长抗体) (antibody, V domains shown)
VH: B3 VH
VL: B3 VL
notes: as for B7

binding result [3]: binds
B5: 人源化Fab克隆 AS01326 (Fab, V domains shown)
VH: B3 VH with E1Q, A9S, V11L, A40M, Q43K, N73D, S85R, E89D
VL: B3 VL with I2V, T7S, S12P, P15L, Q42L, K50Q, V88F
notes: Fab fragment with a SASA tag, as screened on Biacore; also called AS01326 Fab

binding result [2]: binds
B6: 抗人D因子人源化抗体 AS01326 (全长抗体) (antibody, V domains shown)
VH: B3 VH with E1Q, A9S, V11L, A40M, Q43K, N73D, S85R, E89D
VL: B3 VL with I2V, T7S, S12P, P15L, Q42L, K50Q, V88F
notes: as for B7

Source: CN106905431A (XUHUA (SHANGHAI) BIOLOGICAL RES AND DEV CENTER CO LTD, dated 2017)
